B1: Basigin (Homo sapiens), P35613-2 (parent)
chain: MAAALFVLLGFALLGTHGASGAAGTVFTTVEDLGSKILLTCSLNDSATEVTGHRWLKGGVVLKEDALPGQKTEFKVDSDDQWGEYSCVFLPEPMGTANIQLHGPPRVKAVKSSEHINEGETAMLVCKSESVPPVTDWAWYKITDSEDKALMNGSESRFFVSSSQGRSELHIENLNMEADPGQYRCNGTSSKGSDQAIITLRVRSHLAALWPFLGIVAEVLVLVTIIFIYEKRRKPEDVLDDDDAGSAPLKSSGQHQNDKGKNVRQRNSS

Variants of: B1
Conditions: with rh5_plaf7 RH5, Q8IFM5
rh5_plaf7 RH5, Q8IFM5, sequence (Q8IFM5 whole entry): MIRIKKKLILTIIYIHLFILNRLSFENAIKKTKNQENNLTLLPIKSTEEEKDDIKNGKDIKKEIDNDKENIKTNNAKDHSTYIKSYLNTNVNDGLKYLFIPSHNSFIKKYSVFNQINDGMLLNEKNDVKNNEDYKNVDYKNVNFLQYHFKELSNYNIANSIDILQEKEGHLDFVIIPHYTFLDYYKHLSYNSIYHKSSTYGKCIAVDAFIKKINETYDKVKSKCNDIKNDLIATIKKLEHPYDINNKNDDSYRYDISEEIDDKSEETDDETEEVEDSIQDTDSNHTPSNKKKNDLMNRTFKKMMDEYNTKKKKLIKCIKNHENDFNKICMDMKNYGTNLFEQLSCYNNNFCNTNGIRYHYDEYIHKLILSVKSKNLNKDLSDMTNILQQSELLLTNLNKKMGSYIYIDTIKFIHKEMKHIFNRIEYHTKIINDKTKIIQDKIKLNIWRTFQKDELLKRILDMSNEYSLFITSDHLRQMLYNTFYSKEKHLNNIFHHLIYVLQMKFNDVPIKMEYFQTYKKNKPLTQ

Row | Variant | effect of a mutation on the interaction
1 | D32E | with no effect
2 | K75E | with no effect
3 | F27L | decreasing interaction strength
4 | Q100K | decreasing interaction strength

Reference: IntAct's records for PubMed 24297912
